How the values were obtained:
[1] = biological target: T1, TIAR (nucleolysin TIAR, TIAL-1) (human, UniProt Q01085 1-375); test: EMSA; densitometry of free probe; sequential shifts, prefers two and four copies; EMSA: ~2 fmol probe in 20 ul, 10 mM HEPES pH 7.3, 20 mM KCl, 1 mM MgCl2 (printed Mg2Cl2), 1 mM DTT, 30 ng/ul BSA, 0.01% NP-40, 5% glycerol, room temperature 30; details: protein: commercial; hairpin (predicted)
T1 sequence: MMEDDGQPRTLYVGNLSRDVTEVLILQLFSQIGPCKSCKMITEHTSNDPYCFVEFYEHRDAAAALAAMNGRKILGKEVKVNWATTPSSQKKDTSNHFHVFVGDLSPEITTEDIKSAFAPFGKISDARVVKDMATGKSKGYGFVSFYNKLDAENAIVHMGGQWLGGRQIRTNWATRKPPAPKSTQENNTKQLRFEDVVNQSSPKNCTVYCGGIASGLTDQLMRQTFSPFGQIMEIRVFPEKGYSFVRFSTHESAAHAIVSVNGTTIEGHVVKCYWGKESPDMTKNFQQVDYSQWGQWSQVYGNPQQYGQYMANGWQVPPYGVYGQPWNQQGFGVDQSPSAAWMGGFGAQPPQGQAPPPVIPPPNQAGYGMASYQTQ

[2] = biological target: T1, TIAR (nucleolysin TIAR, TIAL-1); test: EMSA; prefers one copy; three only at saturating TIAR; EMSA: ~2 fmol probe in 20 ul, 10 mM HEPES pH 7.3, 20 mM KCl, 1 mM MgCl2 (printed Mg2Cl2), 1 mM DTT, 30 ng/ul BSA, 0.01% NP-40, 5% glycerol, room temperature 30; details: protein: commercial; label: 3' biotin; single strand; sites predicted largely in loop

B1: PHAROH 71-nt hairpin (WT) (structured_RNA)
RNA: GAGAGGAUGCCACUGUUUUGAACUAUUUUGAAGGCACAGCCACCAGAGCUUUAGGGACAGGGUAUUUUAUC
Kd [1]: ~2 nM

B2: Myc 3' UTR 53-nt fragment (ssRNA)
RNA: GCUUCCCAUCUUUUUUCUUUUUCCUUUUAACAGAUUUGUAUUUAAUUGUUUUU
binding result [2]: binds

From paper PMC8163507, “PHAROH lncRNA regulates Myc translation in hepatocellular carcinoma via sequestering TIAR”
